The target in series [1] is PefR (porphyrin-regulated efflux regulator) from Streptococcus agalactiae, non-His-tagged (Streptococcus agalactiae). In words: SEC; gel filtration of purified apo-PefR (heme-free); single peak, estimated ~35 kDa against ca. 17 kDa for the monomer.
For series [2] the target is unchanged. In words: SEC; gel filtration of holo-PefR (heme-bound). (Size exclusion chromatography separates by hydrodynamic size, large species first.)
Series [3] concerns the target T1, PefR (porphyrin-regulated efflux regulator) (Streptococcus agalactiae, UniProt R4Z9I5).
T1 construct: gene AX245_08385; recombinant PefR, C-terminal His tag removed with HRV3C protease; homodimer, two hemes per dimer
T1 sequence (R4Z9I5 1-146): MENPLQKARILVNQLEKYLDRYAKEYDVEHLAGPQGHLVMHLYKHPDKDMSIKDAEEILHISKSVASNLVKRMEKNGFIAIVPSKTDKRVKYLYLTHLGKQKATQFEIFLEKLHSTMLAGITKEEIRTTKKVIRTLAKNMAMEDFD
In words: biochemical. The class given is binding.

Series [4] concerns the target T2, PefR (holo-PefR, ferrous heme-bound) (Streptococcus agalactiae, UniProt R4Z9I5).
T2 construct: gene AX245_08385; recombinant holo-PefR, homodimer
T2 sequence (R4Z9I5 1-146): T1 sequence (R4Z9I5 1-146)
Format: binding.

Series [5] addresses PefR S62A (Streptococcus agalactiae, UniProt Q8E4J9 1-146, S62A). In words: EMSA; apo; 1:1 dimer:DNA, 5 uM; similar to WT; EMSA: 20 mM Tris-HCl pH 7.4, 50 mM KCl, 5% glycerol, 0.2 M MgCl2, room temperature; FP: 40 mM HEPES/Na pH 7.4, 500 mM NaCl, 10% glycerol, 10 nM DNA, room temperature. To be noted: protein: recombinant; tags: C-terminal HRV3C site-6xHis, removed; chain copies: 2; label: 5'-FAM on antisense strand; blunt.

In series [6] the target is PefR K53A (Streptococcus agalactiae, UniProt Q8E4J9 1-146, K53A). Described as above. To be noted: protein: recombinant; tags: C-terminal HRV3C site-6xHis, removed; chain copies: 2; label: 5'-FAM on antisense strand; blunt.
Series [7] addresses PefR K75A (Streptococcus agalactiae, UniProt Q8E4J9 1-146, K75A). The series is described as above. To be noted: protein: recombinant; tags: C-terminal HRV3C site-6xHis, removed; chain copies: 2; label: 5'-FAM on antisense strand; blunt.
In series [8] the target is PefR S67A (Streptococcus agalactiae, UniProt Q8E4J9 1-146, S67A). The description is as above. To be noted: protein: recombinant; tags: C-terminal HRV3C site-6xHis, removed; chain copies: 2; label: 5'-FAM on antisense strand; blunt.
Series [9] concerns the target PefR K63A (Streptococcus agalactiae, UniProt Q8E4J9 1-146, K63A). The series is described as above. To be noted: protein: recombinant; tags: C-terminal HRV3C site-6xHis, removed; chain copies: 2; label: 5'-FAM on antisense strand; blunt.
For series [10], the target named is PefR R89A (Streptococcus agalactiae, UniProt Q8E4J9 1-146, R89A). Kind of series: EMSA; apo; 1:1 dimer:DNA, 5 uM; EMSA: 20 mM Tris-HCl pH 7.4, 50 mM KCl, 5% glycerol, 0.2 M MgCl2, room temperature; FP: 40 mM HEPES/Na pH 7.4, 500 mM NaCl, 10% glycerol, 10 nM DNA, room temperature. To be noted: protein: recombinant; tags: C-terminal HRV3C site-6xHis, removed; chain copies: 2; label: 5'-FAM on antisense strand; blunt. Background: In EMSA bound probe runs differently from free probe, usually more slowly.

The target of series [11] is T3, PefR (Streptococcus agalactiae, UniProt Q8E4J9 1-146).
T3 sequence: T1 sequence (R4Z9I5 1-146)
In words: EMSA; apo (heme-free); EMSA: 20 mM Tris-HCl pH 7.4, 50 mM KCl, 5% glycerol, 0.2 M MgCl2, room temperature; FP: 40 mM HEPES/Na pH 7.4, 500 mM NaCl, 10% glycerol, 10 nM DNA, room temperature. To be noted: protein: recombinant; tags: C-terminal HRV3C site-6xHis, His tag removed by HRV3C protease (site remnant remains); chain copies: 2; label: 5'-FAM on antisense strand; blunt.

For series [12], the target named is PefR H114A (Streptococcus agalactiae, UniProt Q8E4J9 1-146, H114A). In words: fluorescence polarization; apo (heme-free); 1:1 dimer:dsDNA; EMSA: 20 mM Tris-HCl pH 7.4, 50 mM KCl, 5% glycerol, 0.2 M MgCl2, room temperature; FP: 40 mM HEPES/Na pH 7.4, 500 mM NaCl, 10% glycerol, 10 nM DNA, room temperature. To be noted: protein: recombinant; tags: C-terminal HRV3C site-6xHis, removed; chain copies: 2; label: 5'-FAM on antisense strand; blunt. In general terms: Fluorescence polarisation rises when a labelled molecule tumbles more slowly, as on binding a larger partner.

The target in series [13] is T3, PefR. Kind of series: fluorescence polarization; apo (heme-free); 1:1 dimer:dsDNA; 500 mM NaCl; EMSA: 20 mM Tris-HCl pH 7.4, 50 mM KCl, 5% glycerol, 0.2 M MgCl2, room temperature; FP: 40 mM HEPES/Na pH 7.4, 500 mM NaCl, 10% glycerol, 10 nM DNA, room temperature. To be noted: protein: recombinant; tags: C-terminal HRV3C site-6xHis, His tag removed by HRV3C protease (site remnant remains); chain copies: 2; label: 5'-FAM on antisense strand; blunt.

The target in series [14] is T3, PefR. In words: X-ray crystallography; apo (heme-free), 2.5 A; EMSA: 20 mM Tris-HCl pH 7.4, 50 mM KCl, 5% glycerol, 0.2 M MgCl2, room temperature; FP: 40 mM HEPES/Na pH 7.4, 500 mM NaCl, 10% glycerol, 10 nM DNA, room temperature. To be noted: protein: recombinant; tags: C-terminal HRV3C site-6xHis, His tag removed by HRV3C protease (site remnant remains); chain copies: 2; blunt.

As to “PefR (porphyrin-regulated efflux regulator) from Streptococcus agalactiae, non-His-tagged (natural protein)”, the stoichiometry N in [1] and in [2] was 2 each time.
With `C=CC1=C(C)C2=Cc3c(C=C)c(C)c4[n]3[Fe][n]3c(c(C)c(CCC(=O)O)c3=CC3=NC(=C4)C(C)=C3CCC(=O)O)=CC1=N2` [heme], the Kd in [3] turned out to be 610 nM.
For `[C-]#[O+]` [carbon monoxide], in [4], the Kd was 0.11 and 0.033 μM.

B1: target DNA (operon not stated) (dsDNA)
DNA 1: TAAAATAGTTCTCACGATAACTATTAAA
DNA 2: TTTAATAGTTATCGTGAGAACTATTTTA
In the case of B1, the binding result is recorded as “binds” in [5]; “binds” in series [6]; “binds” in series [7]; “binds” in [8]; “binds” in series [9]; “no binding” in series [10].

B2: nontarget DNA (dsDNA)
DNA 1: GTTTTAAAACGACCTCTGTAGCGGTCGTTAAAGG
DNA 2: CCTTTAACGACCGCTACAGAGGTCGTTTTAAAAC
As to B2, in series [11], the binding result is “no binding”.

B3: pefAB operator 38 bp (dsDNA)
DNA 1: GCTATTATAAAATAGTTCTCACGATAACTAAAATAATG
DNA 2: CATTATTTTAGTTATCGTGAGAACTATTTTATAATAGC
For the molecule B3, the Kd was around 25 nM in series [12] and 40 nM in [13].

B4: pefRCD operator 28 bp (EMSA) (dsDNA)
DNA 1: TAAAATAGTTCTCACGATAACTATTAAA
DNA 2: TTTAATAGTTATCGTGAGAACTATTTTA
Take B4: the binding result in [11] was “binds”.

B5: pefRCD operator for crystal (dsDNA)
DNA 1: TAAAATAGTTCTCACGATAACTATTAAAT
DNA 2: ATTTAATAGTTATCGTGAGAACTATTTTA
Regarding B5, the binding result in series [14] is reported as “binds”.
